{"source": "patent US20240216425A1", "about": "“Engineered Macrophages for Cancer Immunotherapy” (The Trustees of the University of Pennsylvania, priority 2022, published 2024)", "molecules": {"B1": {"name": "IFNγ: interferon-γ cytokine used to prime macrophages (BioLegend 575302) (protein, UniProt P01580 23-155, looked up)", "Interferon gamma": "HGTVIESLESLNNYFNSSGIDVEEKSLFLDIWRNWQKDGDMKILQSQIISFYLRLFEVLKDNQAISNNISVIESHLITTFFSNSKAKKDAFMSIAKFEVNNPQVQRQAFNELIRVVHQLLPESSLRKRKRSRC"}, "B2": {"name": "IL-4: interleukin-4 cytokine used to prime macrophages (BioLegend 574302) (protein, UniProt P07750 21-140, looked up)", "Interleukin-4": "HIHGCDKNHLREIIGILNEVTGEGTPCTEMDVPNVLTATKNTTESELVCRASKVLRIFYLKHGKTPCLKKNSSVLMELQRLFRAFRCLDSSISCTMNESKSTSLKDFLESLKSIMQMDYS"}}, "key": {"CD47 KO B16 tumoroids": {"tested_on": "CD47 KO B16 tumoroids", "assay": "Immuno-tumoroid growth with bone marrow-derived macrophages", "format": "cell-based, mouse", "conditions": "for tumoroid elimination and macrophage clusters: macrophages pre-treated with cytokine (20 ng/mL, 48 h)", "description": "(§1) Tumoroids. To generate surfaces conducive to B16 tumoroid formation, 96-well plates (Greiner Bio-One 650161) were either coated with 70 μL of 2% agarose in water or PBS or, more commonly, treated for 20 min with 100 μL of anti-adherence rinsing solution (StemCell Technologies 07010). The wells were washed with PBS, and then blocked with 0.5-1% (w/v) bovine serum albumin (BSA, Sigma) 37° ° C. for 1 h. B16 were detached by brief trypsinization, resuspended in RPMI supplemented with 10% FBS, 1× non-essential amino acid solution (Gibco 11140050) and 1 mM sodium pyruvate (Gibco 11360070) at a concentration of 1×103 or 1×10^4 per mL, and added to passivated wells in a volume of 100 μL. A single aggregate of B16 cells formed in each well, typically within 12 h. For tumoroid disaggregation studies, EDTA and EGTA were added in PBS to obtain a final concentration of 2 mM, and in some cases magnesium sulphate was also added for a final concentration of 5 mM Mg2+. Latrunculin A (Invitrogen L12370) dissolved at 1 μM in DMSO was further diluted in PBS and added to obtain a final concentration of 1 μM. For phagocytosis versus growth studies, CellTracker Deep Red-labeled BMDMs and antibodies (final concentration 20 μg/mL anti-Tyrp1 and/or 20 μg/mL anti-CD47 or 10 μg/mL anti-SIRPα) or mouse serum (final concentration 1:200) were added 24 h later in a volume of 20 μL RPMI growth media with 120 ng/mL M-CSF. For myosin-II inhibition studies, 20 μM blebbistatin (MilliporeSigma 203389) or an equal volume of DMSO vehicle was added to B16 tumoroids for 1 h prior to addition of BMDMs. Tumoroids were imaged on the Olympus IX microscope with 20×/0.4 NA, 10×/0.3 NA, or 4×/0.13 NA objectives. Tumoroid areas were measured in Fiji/ImageJ after thresholding GFP fluorescence using built-in thresholding algorithms and manually adjusting the threshold as needed.\nStatistical analysis and curve fitting. Statistical analyses and curve fitting were performed in Prism v8.4-v9.4 (GraphPad) and MATLAB R2020a (MathWorks). Details for each analysis are provided in figure legends, and exact p values are provided. […]"}, "[1]": {"molecular_target": "CD47 on B16-F10 mouse melanoma cells (also on RM-9 mouse prostate cancer cells) (mouse) (UniProt Q61735)", "sequence (Q61735 19-303)": "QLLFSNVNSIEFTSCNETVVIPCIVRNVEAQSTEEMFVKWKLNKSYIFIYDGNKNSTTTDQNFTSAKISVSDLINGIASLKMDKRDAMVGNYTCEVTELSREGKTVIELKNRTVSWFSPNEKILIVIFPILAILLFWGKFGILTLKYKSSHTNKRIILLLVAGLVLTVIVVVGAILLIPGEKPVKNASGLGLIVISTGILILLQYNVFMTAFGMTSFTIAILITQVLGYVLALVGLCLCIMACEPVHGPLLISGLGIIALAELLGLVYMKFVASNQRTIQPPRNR", "assay": "flow cytometry titration on B16 cells, secondary antibody AF647, median fluorescence fit to y=A*x/(K+x); apparent K on cells"}, "[2]": {"molecular_target": "Tyrp1 (tyrosinase-related protein 1) on B16-F10 mouse melanoma cells (mouse) (UniProt P07147)", "sequence (P07147 25-537)": "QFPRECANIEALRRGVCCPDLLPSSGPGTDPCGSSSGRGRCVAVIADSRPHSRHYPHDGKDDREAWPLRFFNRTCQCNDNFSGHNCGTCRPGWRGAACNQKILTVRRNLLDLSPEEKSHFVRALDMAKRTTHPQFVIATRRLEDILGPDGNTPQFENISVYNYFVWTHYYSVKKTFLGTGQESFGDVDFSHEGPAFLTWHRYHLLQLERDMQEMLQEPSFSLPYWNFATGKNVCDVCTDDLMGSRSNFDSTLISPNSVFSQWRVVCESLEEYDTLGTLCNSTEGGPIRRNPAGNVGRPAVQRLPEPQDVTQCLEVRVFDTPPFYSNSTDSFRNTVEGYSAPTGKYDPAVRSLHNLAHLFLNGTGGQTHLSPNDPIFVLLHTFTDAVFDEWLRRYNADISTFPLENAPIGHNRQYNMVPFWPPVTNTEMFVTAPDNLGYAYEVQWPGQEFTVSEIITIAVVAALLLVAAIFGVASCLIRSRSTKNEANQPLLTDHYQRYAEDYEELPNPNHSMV", "assay": "flow cytometry titration on B16 cells, secondary antibody AF647, median fluorescence fit to y=A*x/(K+x); apparent K on cells"}, "[3]": {"tested_on": "macrophages in CD47 KO tumoroids", "assay": "Macrophage clustering in tumoroids (entropy image analysis, radial profiles, cluster area)", "format": "cell-based, mouse", "conditions": "2 mM chelator added ~24 h after macrophages and anti-Tyrp1, read 3 h later", "description": "as §1, with “A single aggregate of B16 cells formed in each well, typically within 12 h.” left out, “For phagocytosis versus growth studies, CellTracker Deep Red-labeled BMDMs and antibodies (final concentration 20 μg/mL anti-Tyrp1 and/or 20 μg/mL anti-CD47 or 10 μg/mL anti-SIRPα) or mouse serum (final concentration 1:200) were added 24 h later in a volume of 20 μL RPMI growth media with 120 ng/mL M-CSF. For myosin-II inhibition studies, 20 μM blebbistatin (MilliporeSigma 203389) or an equal volume of DMSO vehicle was added to B16 tumoroids for 1 h prior to addition of BMDMs. Tumoroids were imaged on the Olympus IX microscope with 20×/0.4 NA, 10×/0.3 NA, or 4×/0.13 NA objectives.” left out"}, "B16 tumoroids": {"tested_on": "B16 tumoroids", "format": "cell-based, mouse", "description": "as §1, with “A single aggregate of B16 cells formed in each well, typically within 12 h.” left out"}, "macrophage monocultures": {"tested_on": "macrophage monocultures", "assay": "Macrophage monocultures on non-adhesive surfaces, clustering", "format": "cell-based, mouse", "conditions": "20 ng/mL cytokine", "description": "Bone marrow-derived macrophages (BMDMs). Bone marrow was harvested from donor mice, lysed with ACK buffer (Gibco A1049201) to deplete red blood cells, and cultured on Petri dishes for 7 days in IMDM (Gibco 12440053) supplemented with 10% FBS, 1% P/S, and 20 ng/ml recombinant mouse macrophage colony-stimulating factor (M-CSF, BioLegend 576406). Successful differentiation was confirmed by flow cytometry staining with antibodies against macrophage markers. Cytokine-primed BMDMs were cultured in RPMI growth media+20 ng/ml M-CSF+20 ng/mL IFNγ (BioLegend 575302) or 20 ng/ml IL-4 (BioLegend 574302) for 48 h prior to use in tumoroid assays or prior to analysis of protein expression by flow cytometry. […]\nEntropy image analysis. Fluorescence images of CellTracker Deep Red-labeled macrophages were converted to binary images of black cells on a white background using the Otsu threshold algorithm in ImageJ. The number of dark pixels was determined from the image histogram, and the image was saved as a PNG file, which is a form of lossless file compression to determine the compressed file size as a measure of entropy. Random and structured images were generated and analyzed using the Python NumPy and PIL/Pillow packages, respectively."}, "[4]": {"conditions": "2 mM EDTA or EGTA, 1 μM Latrunculin A"}}, "note": "“Also recorded” adds a separate entry of the source. Like-named read-outs stand apart in the source and are kept apart here.", "data": [{"molecule": "Cc1ccc2c(c1)C(=O)C1(O)CCN(c3ccccc3)C1=N2", "note": "(centres unmarked) [blebbistatin]", "values": [{"measurement": "tumoroid growth repression by macrophages", "setting": "CD47 KO B16 tumoroids; 20 μM", "result": "not affected"}]}, {"molecule": "anti-mouse CD47 clone MIAP301 (BioXCell BE0270) (antibody)", "values": [{"measurement": "Kd", "setting": "[1]", "result": 25, "unit": "nM"}]}, {"molecule": "anti-mouse/human Tyrp1 clone TA99 (BioXCell BE0151) (antibody)", "values": [{"measurement": "Kd", "setting": "[2]", "result": 47, "unit": "nM"}]}, {"molecule": "O=C(O)CN(CCN(CC(=O)O)CC(=O)O)CC(=O)O", "note": "[EDTA]", "values": [{"measurement": "macrophage cluster projected area / disaggregation of macrophages", "setting": "[3]", "result": "rapid disaggregation of macrophages; also recorded: increases significantly"}, {"measurement": "tumoroid projected area / B16 aggregates", "setting": "B16 tumoroids", "result": "rapid (<1 h) increase"}]}, {"molecule": "O=C(O)CN(CCOCCOCCN(CC(=O)O)CC(=O)O)CC(=O)O", "note": "[EGTA]", "values": [{"measurement": "tumoroid projected area / B16 aggregates", "setting": "B16 tumoroids; [4]", "result": "did disrupt B16 aggregates; also recorded: rapid (<1 h) increase"}]}, {"molecule": "C/C1=C/C(=O)O[C@@H]2C[C@@H](CC[C@H](C)/C=C\\C=C\\CC1)O[C@@](O)([C@@H]1CSC(=O)N1)C2", "note": "[Latrunculin A]", "values": [{"measurement": "tumoroid projected area / B16 aggregates", "setting": "B16 tumoroids; [4]", "result": "rapid (<1 h) increase"}]}, {"molecule": "B1", "values": [{"measurement": "tumoroid elimination and macrophage clusters", "setting": "CD47 KO B16 tumoroids", "result": "promoted"}, {"measurement": "macrophage clustering in monoculture", "setting": "macrophage monocultures", "result": "cluster"}]}, {"molecule": "B2", "values": [{"measurement": "tumoroid elimination and macrophage clusters", "setting": "CD47 KO B16 tumoroids", "result": "has the opposite effects and disperses macrophages"}, {"measurement": "macrophage clustering in monoculture", "setting": "macrophage monocultures", "result": "disperse"}]}]}
